Source: publication PMC6954417

Target: DSS1 (human)
Test: MST; labelled DSS1 50 nM constant, RAD52 1 nM to 36 uM, 30 mM Tris-acetate pH 7.5, 1 mM DTT, 25°C, quadratic binding equation

Kd: 14 nM
B1: RAD52 (natural protein)
chain: MSGTEEAILGGRDSHPAAGGGSVLCFGQCQYTAEEYQAIQKALRQRLGPEYISSRMAGGGQKVCYIEGHRVINLANEMFGYNGWAHSITQQNVDFVDLNNGKFYVGVCAFVRVQLKDGSYHEDVGYGVSEGLKSKALSLEKARKEAVTDGLKRALRSFGNALGNCILDKDYLRSLNKLPRQLPLEVDLTKAKRQDLEPSVEEARYNSCRPNMALGHPQLQQVTSPSRPSHAVIPADQDCSSRSLSSSAVESEATHQRKLRQKQLQQQFRERMEKQQVRVSTPSAEKSEAAPPAPPVTHSTPVTVSEPLLEKDFLAGVTQELIKTLEDNSEKWAVTPDAGDGVVKPSSRADPAQTSDTLALNNQMVTQNRTPHSVCHQKPQAKSGSWDLQTYSADQRTTGNWESHRKSQDMKKRKYDPS
